Measurements: patent US12077763B2, “RNA-based control of powdery mildew” (Greenlight Biosciences, Inc., priority 2021, dated 2024)

System: E. necator
Experiment: Leaf disc assay, dry inoculum (settling tower), decrease in disease severity / hyphal growth (Example 2)
Conditions: decrease in disease severity (hyphal growth) relative to untreated control, value ± SE; for % decrease =/− SE TP1: time point 1 (untreated control hyphal growth ≥50%); for % decrease =/− SE TP2: time point 2

Molecule	% decrease =/− SE TP1	% decrease =/− SE TP2
GS3616 (nucleic acid) sense: UUAAAAGUUGCGGUUUAACUUAAGCUGUAGCCGCAACAGUUUCAGCUGUCCCAGCUAGUCCUUCUGAUUGAAGUUUAUCAUUAGUAAUCCCUUUAGCGAUGGCGCCAUUAGUACCUUCGGUUGAGUUGCCAACAUUAGAUACUUCGCCAGCACCAUCAGAUACAUGUGUAGUUAAUUCUUCAGAGGUCUUGUCCGGACUAUCUAUUGCGAUCUUUACUGCAAUCUCACGACCUUGAACUUCUUUUCCAUUCAUUUCGGCAACAGCCCUAUUUUGAAGUUCAUUAGAUGCUAAGUUCACAAAGCCAAACCCACGGCCUUUCCGAGGUUCGUUGCGGGCCUGAAGCUUUUUAACCAUGAAUUUUGGAAUAGGACGCAGAGCAAUUUUGGCAGAUACUGGUUC antisense: GAACCAGUAUCUGCCAAAAUUGCUCUGCGUCCUAUUCCAAAAUUCAUGGUUAAAAAGCUUCAGGCCCGCAACGAACCUCGGAAAGGCCGUGGGUUUGGCUUUGUGAACUUAGCAUCUAAUGAACUUCAAAAUAGGGCUGUUGCCGAAAUGAAUGGAAAAGAAGUUCAAGGUCGUGAGAUUGCAGUAAAGAUCGCAAUAGAUAGUCCGGACAAGACCUCUGAAGAAUUAACUACACAUGUAUCUGAUGGUGCUGGCGAAGUAUCUAAUGUUGGCAACUCAACCGAAGGUACUAAUGGCGCCAUCGCUAAAGGGAUUACUAAUGAUAAACUUCAAUCAGAAGGACUAGCUGGGACAGCUGAAACUGUUGCGGCUACAGCUUAAGUUAAACCGCAACUUUUAA	14 ± 4%	–
GS3610 (nucleic acid) sense: AUCAAACUGGGAGAGAUCAGAAACUAAGCUUGUGGAGCUGUGAAUCUUAACAGGGGUGUAAGCAUUUAGUUCCGAAACUCGUUGAGCUGAGACAAUAUCUCUAGGUUUUCCUAUAUCUUCUGGGUUAAGAAAGAAUUGAGAUGAUAGGUCAGCGAUAGUUGCGGGAGCGGGAUCGUAUAAUGUUAGACUUUUAACUCCAGCCAGAGCUAUAUUCUUAGCUAUUUCGAUACCAAGACCUUUCAAGCCAAUAAUAAGAAUAUUCGAUGCACUCAUUCGUUUCAUAGCCUCGUGUCCAAGAAC antisense: GUUCUUGGACACGAGGCUAUGAAACGAAUGAGUGCAUCGAAUAUUCUUAUUAUUGGCUUGAAAGGUCUUGGUAUCGAAAUAGCUAAGAAUAUAGCUCUGGCUGGAGUUAAAAGUCUAACAUUAUACGAUCCCGCUCCCGCAACUAUCGCUGACCUAUCAUCUCAAUUCUUUCUUAACCCAGAAGAUAUAGGAAAACCUAGAGAUAUUGUCUCAGCUCAACGAGUUUCGGAACUAAAUGCUUACACCCCUGUUAAGAUUCACAGCUCCACAAGCUUAGUUUCUGAUCUCUCCCAGUUUGAU	10 ± 6%	5 ± 6%
GS3615 (nucleic acid) sense: UAUCAUUAGUAAUCCCUUUAGCGAUGGCGCCAUUAGUACCUUCGGUUGAGUUGCCAACAUUAGAUACUUCGCCAGCACCAUCAGAUACAUGUGUAGUUAAUUCUUCAGAGGUCUUGUCCGGACUAUCUAUUGCGAUCUUUACUGCAAUCUCACGACCUUGAACUUCUUUUCCAUUCAUUUCGGCAACAGCCCUAUUUUGAAGUUCAUUAGAUGCUAAGUUCACAAAGCCAAACCCACGGCCUUUCCGAGG antisense: CCUCGGAAAGGCCGUGGGUUUGGCUUUGUGAACUUAGCAUCUAAUGAACUUCAAAAUAGGGCUGUUGCCGAAAUGAAUGGAAAAGAAGUUCAAGGUCGUGAGAUUGCAGUAAAGAUCGCAAUAGAUAGUCCGGACAAGACCUCUGAAGAAUUAACUACACAUGUAUCUGAUGGUGCUGGCGAAGUAUCUAAUGUUGGCAACUCAACCGAAGGUACUAAUGGCGCCAUCGCUAAAGGGAUUACUAAUGAUA	4 ± 5%	5 ± 5%
GS3609 (nucleic acid) sense: CUGUCAAUAUUACAGCUUGAUAUGAAUCAAACUGGGAGAGAUCAGAAACUAAGCUUGUGGAGCUGUGAAUCUUAACAGGGGUGUAAGCAUUUAGUUCCGAAACUCGUUGAGCUGAGACAAUAUCUCUAGGUUUUCCUAUAUCUUCUGGGUUAAGAAAGAAUUGAGAUGAUAGGUCAGCGAUAGUUGCGGGAGCGGGAUCGUAUAAUGUUAGACUUUUAACUCCAGCCAGAGCUAUAUUCUUAGCUAUUUCGAUACCAAGACCUUUCAAGCCAAUAAUAAGAAUAUUCGAUGCACUCAUUCGUUUCAUAGCCUCGUGUCCAAGAACGUAGAGUUGCCUACUGUAUAAAGAC antisense: GUCUUUAUACAGUAGGCAACUCUACGUUCUUGGACACGAGGCUAUGAAACGAAUGAGUGCAUCGAAUAUUCUUAUUAUUGGCUUGAAAGGUCUUGGUAUCGAAAUAGCUAAGAAUAUAGCUCUGGCUGGAGUUAAAAGUCUAACAUUAUACGAUCCCGCUCCCGCAACUAUCGCUGACCUAUCAUCUCAAUUCUUUCUUAACCCAGAAGAUAUAGGAAAACCUAGAGAUAUUGUCUCAGCUCAACGAGUUUCGGAACUAAAUGCUUACACCCCUGUUAAGAUUCACAGCUCCACAAGCUUAGUUUCUGAUCUCUCCCAGUUUGAUUCAUAUCAAGCUGUAAUAUUGACAG	13 ± 8%	9 ± 6%
GS3613 (nucleic acid) sense: UGUAGCCGCAACAGUUUCAGCUGUCCCAGCUAGUCCUUCUGAUUGAAGUUUAUCAUUAGUAAUCCCUUUAGCGAUGGCGCCAUUAGUACCUUCGGUUGAGUUGCCAACAUUAGAUACUUCGCCAGCACCAUCAGAUACAUGUGUAGUUAAUUCUUCAGAGGUCUUGUCCGGACUAUCUAUUGCGAUCUUUACUGCAAUCUCACGACCUUGAACUUCUUUUCCAUUCAUUUCGGCAACAGCCCUAUUUUGAAGUUCAUUAGAUGCUAAGUUCACAAAGCCAAACCCACGGCCUUUCCGAGGUUCGUUGCGGGCCUGAAGCUUUUUAACCAUGAAUUUUGGAAUAGGACGCA antisense: UGCGUCCUAUUCCAAAAUUCAUGGUUAAAAAGCUUCAGGCCCGCAACGAACCUCGGAAAGGCCGUGGGUUUGGCUUUGUGAACUUAGCAUCUAAUGAACUUCAAAAUAGGGCUGUUGCCGAAAUGAAUGGAAAAGAAGUUCAAGGUCGUGAGAUUGCAGUAAAGAUCGCAAUAGAUAGUCCGGACAAGACCUCUGAAGAAUUAACUACACAUGUAUCUGAUGGUGCUGGCGAAGUAUCUAAUGUUGGCAACUCAACCGAAGGUACUAAUGGCGCCAUCGCUAAAGGGAUUACUAAUGAUAAACUUCAAUCAGAAGGACUAGCUGGGACAGCUGAAACUGUUGCGGCUACA	11 ± 3%	–
GS3612 (nucleic acid) sense: AUGAGCUGGUCUUUCAGUGGAAUAUCUGUCAAUAUUACAGCUUGAUAUGAAUCAAACUGGGAGAGAUCAGAAACUAAGCUUGUGGAGCUGUGAAUCUUAACAGGGGUGUAAGCAUUUAGUUCCGAAACUCGUUGAGCUGAGACAAUAUCUCUAGGUUUUCCUAUAUCUUCUGGGUUAAGAAAGAAUUGAGAUGAUAGGUCAGCGAUAGUUGCGGGAGCGGGAUCGUAUAAUGUUAGACUUUUAACUCCAGCCAGAGCUAUAUUCUUAGCUAUUUCGAUACCAAGACCUUUCAAGCCAAUAAUAAGAAUAUUCGAUGCACUCAUUCGUUUCAUAGCCUCGUGUCCAAGAACGUAGAGUUGCCUACUGUAUAAAGACUCAUCGAUAACAUUAUUAUUUUCUU antisense: AAGAAAAUAAUAAUGUUAUCGAUGAGUCUUUAUACAGUAGGCAACUCUACGUUCUUGGACACGAGGCUAUGAAACGAAUGAGUGCAUCGAAUAUUCUUAUUAUUGGCUUGAAAGGUCUUGGUAUCGAAAUAGCUAAGAAUAUAGCUCUGGCUGGAGUUAAAAGUCUAACAUUAUACGAUCCCGCUCCCGCAACUAUCGCUGACCUAUCAUCUCAAUUCUUUCUUAACCCAGAAGAUAUAGGAAAACCUAGAGAUAUUGUCUCAGCUCAACGAGUUUCGGAACUAAAUGCUUACACCCCUGUUAAGAUUCACAGCUCCACAAGCUUAGUUUCUGAUCUCUCCCAGUUUGAUUCAUAUCAAGCUGUAAUAUUGACAGAUAUUCCACUGAAAGACCAGCUCAU	22 ± 6%	–
